Experimental data published in patent US20210395346A1 (SEOUL NATIONAL UNIVERSITY R AND DB FOUNDATION, published 2021).

How the values were obtained:
[1] = biological target: T1, SARS-CoV-2 RBD variant L452R (California) (SARS-CoV-2, UniProt P0DTC2 319-541); assay: ELISA (FIG. 18E)
T1 construct: domain: RBD

[2] = biological target: T2, SARS-CoV-2 RBD variant E484K (New York) (SARS-CoV-2, UniProt P0DTC2 319-541); assay: ELISA (FIG. 18E)
T2 construct: domain: RBD

[3] = biological target: T3, SARS-CoV-2 RBD variant K417V, N439K (Europe) (SARS-CoV-2, UniProt P0DTC2 319-541); assay: ELISA (FIG. 18E)
T3 construct: domain: RBD

[4] = biological target: T4, SARS-CoV-2 RBD variant S477N (New York) (SARS-CoV-2, UniProt P0DTC2 319-541); assay: ELISA (FIG. 18E)
T4 construct: domain: RBD

[5] = biological target: T5, SARS-CoV-2 RBD variant E484Q, L452R (India) (SARS-CoV-2, UniProt P0DTC2 319-541); assay: ELISA (FIG. 18E)
T5 construct: domain: RBD

[6] = biological target: T6, SARS-CoV-2 RBD variant K417T, E484K, N501Y (Brazil) (SARS-CoV-2, UniProt P0DTC2 319-541); assay: ELISA (FIG. 18E)
T6 construct: domain: RBD

[7] = biological target: T7, SARS-CoV-2 RBD variant K417N, E484K, N501Y (South Africa) (SARS-CoV-2, UniProt P0DTC2 319-541); assay: ELISA (FIG. 18E)
T7 construct: domain: RBD

[8] = biological target: T8, SARS-CoV-2 RBD variant N439K (Europe) (SARS-CoV-2, UniProt P0DTC2 319-541); assay: ELISA (FIG. 18E)
T8 construct: domain: RBD

[9] = biological target: T9, SARS-CoV-2 RBD variant N501Y (UK) (SARS-CoV-2, UniProt P0DTC2 319-541); assay: ELISA (FIG. 18E)
T9 construct: domain: RBD

[10] = biological target: T1, SARS-CoV-2 RBD variant L452R …; assay: ELISA (FIG. 18A)
[11] = biological target: T2, SARS-CoV-2 RBD variant E484K (New York); assay: ELISA (FIG. 18A)
[12] = biological target: T3, SARS-CoV-2 RBD variant K417V, N439K …; assay: ELISA (FIG. 18A)
[13] = biological target: T4, SARS-CoV-2 RBD variant S477N (New York); assay: ELISA (FIG. 18A)
[14] = biological target: T5, SARS-CoV-2 RBD variant E484Q, L452R …; assay: ELISA (FIG. 18A)
[15] = biological target: T6, SARS-CoV-2 RBD variant K417T, E484K, …; assay: ELISA (FIG. 18A)
[16] = biological target: T7, SARS-CoV-2 RBD variant K417N, E484K, …; assay: ELISA (FIG. 18A)
[17] = biological target: T8, SARS-CoV-2 RBD variant N439K (Europe); assay: ELISA (FIG. 18A)
[18] = biological target: T9, SARS-CoV-2 RBD variant N501Y (UK); assay: ELISA (FIG. 18A)
[19] = biological target: T1, SARS-CoV-2 RBD variant L452R …; assay: ELISA (FIG. 18C)
[20] = biological target: T2, SARS-CoV-2 RBD variant E484K (New York); assay: ELISA (FIG. 18C)
[21] = biological target: T3, SARS-CoV-2 RBD variant K417V, N439K …; assay: ELISA (FIG. 18C)
[22] = biological target: T4, SARS-CoV-2 RBD variant S477N (New York); assay: ELISA (FIG. 18C)
[23] = biological target: T5, SARS-CoV-2 RBD variant E484Q, L452R …; assay: ELISA (FIG. 18C)
[24] = biological target: T6, SARS-CoV-2 RBD variant K417T, E484K, …; assay: ELISA (FIG. 18C)
[25] = biological target: T7, SARS-CoV-2 RBD variant K417N, E484K, …; assay: ELISA (FIG. 18C)
[26] = biological target: T8, SARS-CoV-2 RBD variant N439K (Europe); assay: ELISA (FIG. 18C)
[27] = biological target: T9, SARS-CoV-2 RBD variant N501Y (UK); assay: ELISA (FIG. 18C)
[28] = biological target: T1, SARS-CoV-2 RBD variant L452R …; assay: ELISA (FIG. 18B)
[29] = biological target: T2, SARS-CoV-2 RBD variant E484K (New York); assay: ELISA (FIG. 18B)
[30] = biological target: T3, SARS-CoV-2 RBD variant K417V, N439K …; assay: ELISA (FIG. 18B)
[31] = biological target: T4, SARS-CoV-2 RBD variant S477N (New York); assay: ELISA (FIG. 18B)
[32] = biological target: T5, SARS-CoV-2 RBD variant E484Q, L452R …; assay: ELISA (FIG. 18B)
[33] = biological target: T6, SARS-CoV-2 RBD variant K417T, E484K, …; assay: ELISA (FIG. 18B)
[34] = biological target: T7, SARS-CoV-2 RBD variant K417N, E484K, …; assay: ELISA (FIG. 18B)
[35] = biological target: T8, SARS-CoV-2 RBD variant N439K (Europe); assay: ELISA (FIG. 18B)
[36] = biological target: T9, SARS-CoV-2 RBD variant N501Y (UK); assay: ELISA (FIG. 18B)

Measured: binding result

B1: E-3G9 antibody (format in FIG. 18 not stated) (antibody, V domains shown)
VH: QMQLVQSGAEVKKPGASVKVSCKASGHTITSYYMHWVRQAPGQGLEWMGIINPSGGSTSYAQKFQGRVTMTRDTSTSTVYMELSSLRSEDTAVYYCAREGVWDSSGYSSFDYWGQGTLVTVSS
VL: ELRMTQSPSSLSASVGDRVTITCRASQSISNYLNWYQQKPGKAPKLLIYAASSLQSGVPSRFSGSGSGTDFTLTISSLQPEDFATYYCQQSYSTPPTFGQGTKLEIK
binds: [1] | [2] | [3] | [4] | [5] | [6] | [7] | [8] | [9]

B2: A-1H4 antibody (format in FIG. 18 not stated) (antibody, V domains shown)
VH: EVQLVESGGGLVQPGRSLRLSCAASGFTVSSNYMSWVRQAPGKGLEWVSGIYSGGSTYYADSVKGRFTISRDNSKNTLYLQMNSLRAEDTAVYYCARDLQEAGAFDIWGQGTMVTVSS
VL: ELQLTQSPSFLSASVGDRVTITCRASQGISSYLAWYQQKPGKAPKLLIYAASTLQSGVPSRFSGSGSGTEFTLTISSLQPEDFATYYCQQLNSYPRLTFGGGTKVEIK
binds: [10] | [11] | [12] | [13] | [14] | [15] | [16] | [17] | [18]

B3: A-2H4 antibody (format in FIG. 18 not stated) (antibody, V domains shown)
VH: QMQLVESGGGLVQPGRSLRLSCAASGFTFSVYGMHWVRQAPGKGLEWVAVISYDGSNKYYADSVKGRFSISRDNSKNTLYLQMNSLRGEDTAVYYCAKGGPRPVVKAYGELDYYGMDVWGQGTTVTVSS
VL: ELALTQPASVSGSPGQSITISCTGTSSDIGGYEYVSWYQQHPGKAPKLIIYDVRDRPSGISNRFSGSKSGNTASLIISSLQAGDEADYYCFSYTSSGTYVFGSATKVTVL
binds: [19] | [20] | [21] | [22] | [23] | [24] | [25] | [26] | [27]

B4: A-2F1 antibody (format in FIG. 18 not stated) (antibody, V domains shown)
VH: QVQLVQSGGGLIQPGGSLRLSCAASGVTVSSNYMSWVRQAPGKGLEWVSVIYSGGSTFYADSVKGRFTISRDNSKNTLYLQMNSLRAEDTAVYYCARDLMEAGGMDVWGQGSTVTVSS
VL: ELALTQPPSASGSPGQSVTISCTASSSDIGASNHVAWYQQNPGKAPKLMIYGVSGRPSGVPDRFSGSKSGNTASLTVSGLQAEDEADYYCSSYAGSNILIFGGGTKLTVL
binds: [28] | [29] | [30] | [31] | [32] | [33] | [34] | [35] | [36]
